The results in this text go back to PMC4915166.

The assay deals with gp91^phox, the catalytic subunit of NADPH oxidase (Nox2) (mouse (endogenous in mouse microglia)) (UniProt Q61093).
Chain of gp91^phox, the catalytic subunit of NADPH oxidase (Nox2) (mouse (endogenous in mouse microglia)) (Q61093 whole entry): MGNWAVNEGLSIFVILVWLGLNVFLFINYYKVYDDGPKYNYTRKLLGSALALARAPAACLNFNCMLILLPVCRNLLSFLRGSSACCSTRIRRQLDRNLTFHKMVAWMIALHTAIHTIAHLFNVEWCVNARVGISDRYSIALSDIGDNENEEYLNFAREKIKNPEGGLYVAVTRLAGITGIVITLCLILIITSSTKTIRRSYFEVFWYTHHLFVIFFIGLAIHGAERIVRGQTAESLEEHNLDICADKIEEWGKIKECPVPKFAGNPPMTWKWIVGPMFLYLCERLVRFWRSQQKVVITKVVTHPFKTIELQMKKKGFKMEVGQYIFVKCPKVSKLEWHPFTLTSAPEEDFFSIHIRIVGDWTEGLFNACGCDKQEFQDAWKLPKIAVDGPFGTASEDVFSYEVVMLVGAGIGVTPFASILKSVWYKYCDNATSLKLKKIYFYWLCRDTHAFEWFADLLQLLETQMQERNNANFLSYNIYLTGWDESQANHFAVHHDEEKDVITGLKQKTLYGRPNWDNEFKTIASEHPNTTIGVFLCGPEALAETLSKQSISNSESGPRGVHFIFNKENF

On to “A29-V40 α-Syn peptide (WT, unlabeled, purity >98 %) (from UniProt P37840 29-40)”, for which the extracellular superoxide released by mouse microglia (SOD-inhibitable WST-1 reduction), 1.0 μM peptide, increase over the BSA control (% increase compared to the BSA control) is 129.
